We go through three molecules from patent US5688918, “p53as protein and antibody therefor” (Health Research, Inc.).

Data set [1] concerns the target T1, p53 (UniProt P02340 P02340:1-390). As to the kind of experiment: cell_activity.
A further data set concerns the target p53as (Mus musculus) (UniProt P02340). The experiment in a line: cell_activity.
Data set [2] has as its target T1, p53. As to the kind of experiment: cell_activity; CAT reporter, mouse (10)1 cells. The conditions noted are these: tags: none; pCMVp53r; chain copies: 4. Here is the method: Spontaneously arising immortalized murine BALB/c embryo fibroblast (10) 1 is a p53 negative cell line which was transfected with 2 μg pSV-β-gal plasmid (Promegal), 3 μg 50-2 plasmid (Dr. Levine) which contains 2 copies of a 50 bp sequence corresponding to p53 binding site in muscle creatinine kinase promoter-enhancer upstream of a basic CAT reporter plasmid, and 5 μg pCMVp53as, pCMVp53r or pCMV vector control. Transfection was done using the calcium phosphate method. The cells were harvested 48 hors post transfection and lysed by three freeze-thaw cycles. The supernatant was assayed for CAT activity using diffusion.

[3] abbreviates: luciferase reporter, mouse (10)1 cells.
Setting [4] is: CAT reporter, human Saos-2 cells.

T1 sequence (P02340 whole entry, one chain of several): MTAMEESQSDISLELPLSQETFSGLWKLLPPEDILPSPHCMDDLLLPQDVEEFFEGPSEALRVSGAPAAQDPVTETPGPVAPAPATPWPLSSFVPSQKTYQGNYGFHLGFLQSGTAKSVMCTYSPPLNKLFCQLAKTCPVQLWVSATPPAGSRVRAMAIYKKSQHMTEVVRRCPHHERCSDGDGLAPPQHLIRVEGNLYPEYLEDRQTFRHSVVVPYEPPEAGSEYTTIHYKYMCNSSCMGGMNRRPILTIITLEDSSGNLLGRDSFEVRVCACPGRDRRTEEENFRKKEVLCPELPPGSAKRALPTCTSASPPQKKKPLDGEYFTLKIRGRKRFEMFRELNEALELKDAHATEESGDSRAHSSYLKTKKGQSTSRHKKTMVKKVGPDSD
Chain of p53as (Mus musculus) (P02340 1-364): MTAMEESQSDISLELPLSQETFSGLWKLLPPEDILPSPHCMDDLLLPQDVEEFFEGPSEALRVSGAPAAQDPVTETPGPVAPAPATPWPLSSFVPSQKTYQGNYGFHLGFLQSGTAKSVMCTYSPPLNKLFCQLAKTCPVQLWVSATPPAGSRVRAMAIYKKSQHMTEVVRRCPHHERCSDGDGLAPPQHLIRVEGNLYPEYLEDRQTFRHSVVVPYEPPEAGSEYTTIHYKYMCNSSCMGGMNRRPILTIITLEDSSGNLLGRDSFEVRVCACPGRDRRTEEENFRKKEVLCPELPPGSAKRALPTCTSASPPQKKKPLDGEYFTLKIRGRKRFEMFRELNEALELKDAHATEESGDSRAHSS

Consider WAF-1 promoter (WWP-1 luciferase), for which the activity (fold activation) in the data set with p53 [1] (setting [3]) was found to be 15; in the data set with p53as (Mus musculus) (setting [3]), 14.

For the molecule PG13 (13 repeats of p53 binding site), the activity (fold activation) in the data set with p53 [1] (setting [4]) was 14; in the data set with p53as (Mus musculus) (setting [4]), 9.

B1: muscle creatine kinase promoter-enhancer p53 site (50-2 reporter, 2 copies of 50 bp) (dsDNA)
DNA 1: TGGCAAGCCTATGACATGGCCGGGGCCTGCCTCTCTCTGCCTCTGACCCT
DNA 2: AGGGTCAGAGGCAGAGAGAGGCAGGCCCCGGCCATGTCATAGGCTTGCCA
Consider B1, for which, in the data set with p53 [2], the activity stood at 27 fold activation.
